The target of test [1] is receptor on murine NIH-3T3 fibroblast cells (ATCC No. CCL92) to which 125I-GRP binds (murine, UniProt P21729). Kind of test: competition with 0.45 pM 125I-GRP on NIH-3T3 cells, filter assay. The method, then:
Each tube was charged with 4 ×10^4 cells. […] Three control tubes with no cells or competitor were prepared for measurement of total counts added.
The samples were incubated for 30 min at RT. The contents of each tube were transferred into the wells of a 96-well filter bottom plate (Millipore Multiscreen, Arlington Heights, Mass.) and filtered under moderate vacuum (water aspirator). Each filter was washed three times by filling each well with ice cold PBS, Ph 7.4, 0.1% BSA. The plate was allowed to dry. Dried filters were placed into gamma-counter tubes (12×75 mm glass). The radioactivity on each filter and in the control tubes was counted using a LKB gamma counter. The bound/total added for each assay tube was calculated.

The target in test [2] is receptor on murine NIH-3T3 fibroblast cells (ATCC No. CCL92) to which 125I-GRP binds (murine) (UniProt P21729). Kind of test: competition with […] 125I-GRP on NIH-3T3 cells; inhibitor at 10 nM.
Sequence of receptor on murine NIH-3T3 fibroblast cells (ATCC No. CCL92) to which 125I-GRP binds (murine) (P21729 whole entry): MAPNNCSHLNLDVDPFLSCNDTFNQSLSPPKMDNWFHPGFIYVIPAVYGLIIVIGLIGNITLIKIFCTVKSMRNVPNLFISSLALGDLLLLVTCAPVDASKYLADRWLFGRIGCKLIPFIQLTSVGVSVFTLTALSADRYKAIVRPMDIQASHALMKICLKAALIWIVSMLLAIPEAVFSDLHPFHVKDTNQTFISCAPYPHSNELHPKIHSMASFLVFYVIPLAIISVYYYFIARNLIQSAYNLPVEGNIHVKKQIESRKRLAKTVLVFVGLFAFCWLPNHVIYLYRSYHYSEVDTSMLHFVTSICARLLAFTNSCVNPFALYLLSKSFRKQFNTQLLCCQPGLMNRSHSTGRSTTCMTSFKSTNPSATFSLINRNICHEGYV
Test [3] shares this target. The test can be described thus: competition with […] 125I-GRP on NIH-3T3 cells; inhibitor at 1 nM.
For test [4] the target is unchanged. The test can be described thus: competition with […] 125I-GRP on NIH-3T3 cells; inhibitor at 100 nM.

Where no end group is shown, it is not given here.

Experimental findings from US5578288, “Metal-binding targeted polypeptide constructs” (Cytogen Corporation, dated 1996) are described below.

B1: Benzoic acid bis-thiourea derived from Neuromedin-C, compound 3 (peptide)
peptide: GNHWAVGHLM-NH2
modifications: not fully specified (N-terminus); also: dimer: two chains on one 3,5-disubstituted benzoic acid via N-terminal thioureas
In general, IC50 refers to the concentration that gives 50% inhibition. A low value points to inhibition by little substance. Consider B1, for which the IC50 in test [1] is 10.6 nM.

B2: Benzoic acid bis-thiosemicarbazide derived from N-acetyl-Neuromedin C-hydrazide, compound 6 (peptide)
peptide: Ac-GNHWAVGHLM
modifications: not fully specified (C-terminus); also: dimer: two chains on one 3,5-disubstituted benzoic acid via C-terminal thiosemicarbazides
In turn, B2 had an IC50 in test [1] of 43.3 nM. This IC50 is about 4.1-fold higher than that of the molecule before.

B3: Neuromedin C (NMc, H-Gly-Asn-His-Trp-Ala-Val-Gly-His-Leu-Met-NH2) (peptide)
peptide: H-GNHWAVGHLM-NH2
With B3, the % BOUND (of I-125-GRP) in test [2] was 1.7%; in test [3] it was 2.2%; in test [4] it was 1.4%. The values for the % INHIBITION in test [2], in test [3] and in test [4] were 71%, 63% and 76%, respectively. For the same molecule, the results for the AVG CPM BOUND (of I-125-GRP) in test [2], in test [3] and in test [4] were 1130 CPM, 1420 CPM and 940 CPM, respectively.
